Data from PMC6368608.

How the values were obtained:
[1] = molecular target: CH106 (human); assay: SPR
[2] = molecular target: CH103 (human); assay: SPR
[3] = molecular target: CH103-S14P (human); assay: SPR
[4] = molecular target: CH103 lineage intermediate I3 (human); assay: SPR
[5] = molecular target: CH103-S14P/G30S (human); assay: SPR
[6] = molecular target: CH103 lineage intermediate I8 (human); assay: SPR
[7] = molecular target: I3 (CH103 lineage intermediate) (human); assay: SPR; BIAcore T200; […]) 5 min at 50 µL/min, 10 min dissociation; […]; global 1:1 Langmuir fit; […]
[8] = molecular target: CH106 (human); assay: as above
[9] = molecular target: CH103 (human); assay: as above
[10] = molecular target: I8 (CH103 lineage intermediate) (human); assay: as above
[11] = molecular target: CH106 (human); assay: BLI; […] (AHC) […]; 1:1 model; […]
[12] = molecular target: UCA-S30G/S31G (human); assay: BLI; […] (AHC) […]; 1:1 model; […]
[13] = molecular target: UCA-S30G (human); assay: BLI; […] (AHC) […]; 1:1 model; […]
[14] = molecular target: I4-S14P/G30S (human); assay: BLI; […] (AHC) […]; 1:1 model; […]
[15] = molecular target: CH103 (human); assay: BLI; […] (AHC) […]; 1:1 model; […]
[16] = molecular target: CH103 UCA (human); assay: BLI; […] (AHC) […]; 1:1 model; […]
[17] = molecular target: UCA-P14S (human); assay: BLI; […] (AHC) […]; 1:1 model; […]
[18] = molecular target: CH103-S14P/G30S (human); assay: BLI; […] (AHC) […]; 1:1 model; […]
[19] = molecular target: I4-S14P (human); assay: BLI; […]; mAb (20 ug/mL in PBS) […] (AHC) […], association 400 s, […]; 1:1 model; […]
[20] = molecular target: CH103 UCA-S30G/S31G (human); assay: as above
[21] = molecular target: CH106 (human); assay: as above
[22] = molecular target: I4-S14P/G30S (human); assay: as above
[23] = molecular target: CH103 (human); assay: as above
[24] = molecular target: CH103-S14P (human); assay: as above
[25] = molecular target: CH103 UCA (human); assay: as above
[26] = molecular target: CH103 UCA-S30G (human); assay: as above
[27] = molecular target: CH103-S14P/G30S (human); assay: as above
[28] = molecular target: CH103 UCA-P14S (human); assay: as above
[29] = molecular target: C.CH505TF SOSIP.664.v4.1 (HIV-1 (C.CH505 transmitted/founder))
[30] = molecular target: C.CH505TF gp120 (HIV-1 clade C, CH505 transmitted/founder) (UniProt M4M0W3); assay: SPR

Sequence of CH106 (human) (heavy, as listed by the source, chain 1 of 2): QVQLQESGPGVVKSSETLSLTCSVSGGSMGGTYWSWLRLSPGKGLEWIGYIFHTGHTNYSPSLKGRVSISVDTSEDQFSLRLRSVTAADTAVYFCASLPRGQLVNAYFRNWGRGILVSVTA
Sequence of CH106 (human) (light, as listed by the source, chain 2 of 2): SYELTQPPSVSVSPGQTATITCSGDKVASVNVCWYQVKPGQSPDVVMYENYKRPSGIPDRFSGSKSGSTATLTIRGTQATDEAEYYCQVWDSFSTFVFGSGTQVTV
Sequence of CH103-S14P/G30S (human) (heavy, as listed by the source, chain 1 of 2): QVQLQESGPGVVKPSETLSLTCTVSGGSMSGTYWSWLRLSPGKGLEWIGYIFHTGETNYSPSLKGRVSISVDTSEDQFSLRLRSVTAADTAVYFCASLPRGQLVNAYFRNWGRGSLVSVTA
Sequence of CH103-S14P/G30S (human) (light, as listed by the source, chain 2 of 2): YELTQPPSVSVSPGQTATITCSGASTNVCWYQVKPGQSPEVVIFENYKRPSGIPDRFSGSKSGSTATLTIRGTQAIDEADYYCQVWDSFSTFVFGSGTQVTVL
Sequence of CH103 (human) (heavy, as listed by the source, chain 1 of 2): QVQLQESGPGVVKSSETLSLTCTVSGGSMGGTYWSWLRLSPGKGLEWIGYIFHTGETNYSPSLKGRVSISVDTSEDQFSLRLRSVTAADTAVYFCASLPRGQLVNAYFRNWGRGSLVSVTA
Sequence of CH103-S14P (human) (heavy, as listed by the source, chain 1 of 2): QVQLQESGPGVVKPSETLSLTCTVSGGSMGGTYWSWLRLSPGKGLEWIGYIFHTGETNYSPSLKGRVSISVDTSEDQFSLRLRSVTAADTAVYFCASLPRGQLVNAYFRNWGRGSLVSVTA

Substance: B.63521 D11 gp120 (domain or fragment)
- koff [1]: 0.000229 s⁻¹
- kon [1]: 16000 M⁻¹ s⁻¹
- koff [2]: 2e-05 s⁻¹
- kon [2]: 15000 M⁻¹ s⁻¹
- Kd [3]: 2.1 nM
- koff [3]: 2e-05 s⁻¹
- kon [3]: 9100 M⁻¹ s⁻¹
- koff [4]: 0.0225 s⁻¹
- kon [4]: 5300 M⁻¹ s⁻¹
- Kd [5]: 4 nM
- koff [5]: 2.9e-05 s⁻¹
- kon [5]: 8210 M⁻¹ s⁻¹
- Kd [6]: 680000 nM
- koff [6]: 0.113 s⁻¹
- Kd [7]: 4200 nM
- fold faster ka than I8 [7]: > 50 fold
- Kd [8]: 14.2 nM
- Kd [9]: 1.1 nM
- kon [10]: 170 M⁻¹ s⁻¹

Substance: C.CH505TF SOSIP.664.v4.1 (complex)
- Kd [11]: 5 nM
- Kd [12]: 800 nM
- Kd [13]: 1800 nM
- Kd [14]: 160 nM
- Kd [15]: 16 nM
- Kd [16]: 1500 nM
- Kd [17]: 1700 nM
- Kd [18]: 150 nM

Substance: C.CH505TF.SOSIP.664.v4.1 (complex)
- Kd [19]: 109 nM
- koff [19]: 0.00027 s⁻¹
- kon [19]: 2460 M⁻¹ s⁻¹
- koff [20]: 0.0012 s⁻¹
- kon [20]: 1400 M⁻¹ s⁻¹
- koff [21]: 3.6e-06 s⁻¹
- kon [21]: 670 M⁻¹ s⁻¹
- koff [22]: 0.00034 s⁻¹
- kon [22]: 2120 M⁻¹ s⁻¹
- koff [23]: 1.5e-05 s⁻¹
- kon [23]: 930 M⁻¹ s⁻¹
- Kd [24]: 20 nM
- koff [24]: 1.8e-05 s⁻¹
- kon [24]: 890 M⁻¹ s⁻¹
- koff [25]: 0.00168 s⁻¹
- kon [25]: 1100 M⁻¹ s⁻¹
- koff [26]: 0.0015 s⁻¹
- kon [26]: 860 M⁻¹ s⁻¹
- koff [27]: 6.6e-05 s⁻¹
- kon [27]: 450 M⁻¹ s⁻¹
- koff [28]: 0.0015 s⁻¹
- kon [28]: 900 M⁻¹ s⁻¹

Substance: CH103 (antibody)
- IC80 of neutralisation of the autologous CH505TF Env-pseudovirus, TZM-bl cells (Env on the virus, not the SOSIP trimer) [29]: 6.4 µg/mL

Substance: CH103-S14P (antibody)
- IC80 of neutralisation of the autologous CH505TF Env-pseudovirus, TZM-bl cells (Env on the virus, not the SOSIP trimer) [29]: 12.8 µg/mL

Substance: CH103-S14P/G30S (antibody)
- IC80 of neutralisation of the autologous CH505TF Env-pseudovirus, TZM-bl cells (Env on the virus, not the SOSIP trimer) [29]: 15.5 µg/mL

Substance: I4-S14P (antibody)
- Kd [30]: 40 nM
- koff [30]: 0.00053 s⁻¹
- kon [30]: 13100 M⁻¹ s⁻¹
- IC50 of neutralisation of the autologous CH505TF Env-pseudovirus, TZM-bl cells (Env on the virus, not the SOSIP trimer) [29]: 14.8 µg/mL
- IC80 of neutralisation of the autologous CH505TF Env-pseudovirus, TZM-bl cells (Env on the virus, not the SOSIP trimer) [29]: > 50 µg/mL

Substance: I4-S14P/G30S (antibody)
- Kd [30]: 100 nM
- koff [30]: 0.00101 s⁻¹
- kon [30]: 10000 M⁻¹ s⁻¹
- IC50 of neutralisation of the autologous CH505TF Env-pseudovirus, TZM-bl cells (Env on the virus, not the SOSIP trimer) [29]: 43.2 µg/mL
- IC80 of neutralisation of the autologous CH505TF Env-pseudovirus, TZM-bl cells (Env on the virus, not the SOSIP trimer) [29]: > 50 µg/mL
